Assay results: the supplement of paper PMC9112550, “Optimization of the antimicrobial peptide Bac7 by deep mutational scanning” (BMC Biology, 2022)

Tested on: Escherichia coli TOP10
Assay: shrunken log2 fold change of peptide-encoding DNA abundance (4.5 h post-induction vs induction); higher = less antimicrobial activity (less host growth inhibition)
Details: time post-induction: 4.5 h; library: site-saturation at positions 5, 18, 19, 20
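Note: peptides expressed intracellularly from a pBAD plasmid library in pooled LB shake-flask culture, induced with 0.3% L-arabinose, DNA abundance read by NGS, three biological replicates, DESeq2 with apeglm shrinkage.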

Row | Sequence | shrunken log2 fold change
1 | RRIRTRPPRLPRPRPRPLSHPRP | -0.833
2 | RRIRNRPPRLPRPRPRPPSPPRP | 0.538
3 | RRIRKRPPRLPRPRPRPWDRPRP | 0.394
4 | RRIRKRPPRLPRPRPRPWTYPRP | 0.0938
5 | RRIRLRPPRLPRPRPRPVEEPRP | 0.21
6 | RRIRVRPPRLPRPRPRPNEAPRP | -0.0128
7 | RRIRRRPPRLPRPRPRPCKHPRP | 0.00883
8 | RRIRMRPPRLPRPRPRPKFIPRP | -0.182
9 | RRIRLRPPRLPRPRPRPDFFPRP | 0.0131
10 | RRIRPRPPRLPRPRPRPGVDPRP | 0.0426
11 | RRIRQRPPRLPRPRPRPLPHPRP | 0.137
12 | RRIRTRPPRLPRPRPRPTGCPRP | -0.388
13 | RRIRSRPPRLPRPRPRPMVGPRP | 0.158
14 | RRIRGRPPRLPRPRPRPAAEPRP | 2.52
15 | RRIRVRPPRLPRPRPRPDLSPRP | -0.011
16 | RRIRFRPPRLPRPRPRPFWIPRP | -0.357
17 | RRIRPRPPRLPRPRPRPKGDPRP | 0.022
18 | RRIRDRPPRLPRPRPRPWWYPRP | -0.738
19 | RRIRIRPPRLPRPRPRPATWPRP | -0.273
20 | RRIRFRPPRLPRPRPRPLVQPRP | -0.052
21 | RRIRHRPPRLPRPRPRPKATPRP | 0.00379
22 | RRIRPRPPRLPRPRPRPAWQPRP | 0.277
23 | RRIRPRPPRLPRPRPRPMRCPRP | 0.221
24 | RRIRERPPRLPRPRPRPIHPPRP | -0.239
25 | RRIRNRPPRLPRPRPRPIIMPRP | -0.729

Row | Sequence | shrunken log2 fold change
26 | RRIRHRPPRLPRPRPRPKYEPRP | -0.255
27 | RRIRRRPPRLPRPRPRPDAEPRP | 1.62
28 | RRIRFRPPRLPRPRPRPGTTPRP | -0.032
29 | RRIRERPPRLPRPRPRPTAPPRP | -0.043
30 | RRIRCRPPRLPRPRPRPFAHPRP | -0.355
31 | RRIRVRPPRLPRPRPRPFAQPRP | 0.0825
32 | RRIRIRPPRLPRPRPRPDQYPRP | -0.0181
33 | RRIRQRPPRLPRPRPRPVFFPRP | 0.0102
34 | RRIRQRPPRLPRPRPRPMTYPRP | -0.0223
35 | RRIRNRPPRLPRPRPRPTHYPRP | -0.109
36 | RRIRGRPPRLPRPRPRPAVAPRP | 0.813
37 | RRIRWRPPRLPRPRPRPSIHPRP | -0.319
38 | RRIRFRPPRLPRPRPRPVPFPRP | -0.102
39 | RRIRWRPPRLPRPRPRPKGNPRP | 0.514
40 | RRIRIRPPRLPRPRPRPWHNPRP | -0.169
41 | RRIRVRPPRLPRPRPRPEMVPRP | -0.0955
42 | RRIRGRPPRLPRPRPRPIMKPRP | 0.227
43 | RRIRKRPPRLPRPRPRPTCQPRP | 0.333
44 | RRIRYRPPRLPRPRPRPGQWPRP | 0.136
45 | RRIRSRPPRLPRPRPRPRRHPRP | 0.323
46 | RRIRQRPPRLPRPRPRPETPPRP | 0.495
47 | RRIRHRPPRLPRPRPRPSWVPRP | -0.0882
48 | RRIRHRPPRLPRPRPRPHFCPRP | -0.0593
49 | RRIRRRPPRLPRPRPRPPPVPRP | 0.931
50 | RRIRTRPPRLPRPRPRPCYFPRP | -0.616
